Results taken from US20180064666A1 (BETH ISRAEL DEACONESS MEDICAL CENTER, published 2018).

Legend:
[1] = target: T1, Erk2 (endogenous, member of Erk1/2) (human (endogenous in human cell lines), UniProt P28482 2-360); assay: reciprocal co-IP from HMLE lysates, western blot (FIG. 45C)
T1 construct: one entry is written for each member; also called total Erk1/2

[2] = target: T2, Erk1 (endogenous, member of Erk1/2) (human (endogenous in human cell lines), UniProt P27361 2-379); assay: as above
T2 construct: one entry is written for each member; also called total Erk1/2
T2 sequence (P27361 2-379 limits assumed): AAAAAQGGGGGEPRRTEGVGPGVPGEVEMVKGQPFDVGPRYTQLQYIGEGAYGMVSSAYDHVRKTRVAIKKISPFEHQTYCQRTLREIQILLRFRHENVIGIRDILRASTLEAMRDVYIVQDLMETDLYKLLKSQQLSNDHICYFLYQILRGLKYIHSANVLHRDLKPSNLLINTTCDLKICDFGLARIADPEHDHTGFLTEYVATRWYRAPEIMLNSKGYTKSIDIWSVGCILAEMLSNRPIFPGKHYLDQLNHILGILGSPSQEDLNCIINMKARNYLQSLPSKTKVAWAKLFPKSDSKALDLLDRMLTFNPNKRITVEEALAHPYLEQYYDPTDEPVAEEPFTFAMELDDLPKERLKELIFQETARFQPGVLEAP

[3] = target: p-Erk2 (phosphorylated Erk2, member of p-Erk1/2) (human (endogenous in human cell lines), UniProt P28482 2-360, phosphorylated (p-Erk1/2, induced by constitutively active MEK1); sites not given); assay: co-IP from HEK293 cells (FIG. 45D)
Chain of p-Erk2 (phosphorylated Erk2, member of p-Erk1/2) (P28482 2-360 limits assumed): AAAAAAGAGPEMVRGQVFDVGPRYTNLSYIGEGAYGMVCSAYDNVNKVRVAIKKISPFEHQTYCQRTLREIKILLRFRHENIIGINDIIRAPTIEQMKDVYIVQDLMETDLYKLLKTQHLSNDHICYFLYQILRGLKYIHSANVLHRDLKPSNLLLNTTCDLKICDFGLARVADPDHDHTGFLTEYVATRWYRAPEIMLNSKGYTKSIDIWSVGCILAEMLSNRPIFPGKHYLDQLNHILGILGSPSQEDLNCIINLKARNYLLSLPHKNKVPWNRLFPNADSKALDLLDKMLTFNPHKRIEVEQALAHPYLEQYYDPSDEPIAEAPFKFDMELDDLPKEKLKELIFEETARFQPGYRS

[4] = target: T1, Erk2 (endogenous, member of Erk1/2); assay: co-IP from HEK293 cells (FIG. 45D)
[5] = target: T2, Erk1 (endogenous, member of Erk1/2); assay: co-IP from HEK293 cells (FIG. 45D)
[6] = target: p-Erk1 (phosphorylated Erk1, member of p-Erk1/2) (human (endogenous in human cell lines), UniProt P27361 2-379, phosphorylated (p-Erk1/2, induced by constitutively active MEK1); sites not given); assay: co-IP from HEK293 cells (FIG. 45D)
Chain of p-Erk1 (phosphorylated Erk1, member of p-Erk1/2) (P27361 2-379 limits assumed): as the sequence (P27361 2-379 limits assumed) above

Measured: binding result

T1 sequence (P28482 2-360 limits assumed): as the sequence (P28482 2-360 limits assumed) above

B1: endogenous Rab2A (enzyme, human (endogenous in human HMLE cells), UniProt P61019 2-212, looked up)
chain: AYAYLFKYIIIGDTGVGKSCLLLQFTDKRFQPVHDLTIGVEFGARMITIDGKQIKLQIWDTAGQESFRSITRSYYRGAAGALLVYDITRRDTFNHLTTWLEDARQHSNSNMVIMLIGNKSDLESRREVKKEEGEAFAREHGLIFMETSAKTASNVEEAFINTAKEIYEKIQEGVFDINNEANGIKIGPQHAATNATHAGNQGGQQAGGGCC
binds: [1] | [2]

B2: Flag-Rab2A (enzyme, UniProt P61019 1-212, looked up, not shown: small tags and cut ends)
chain: MAYAYLFKYIIIGDTGVGKSCLLLQFTDKRFQPVHDLTIGVEFGARMITIDGKQIKLQIWDTAGQESFRSITRSYYRGAAGALLVYDITRRDTFNHLTTWLEDARQHSNSNMVIMLIGNKSDLESRREVKKEEGEAFAREHGLIFMETSAKTASNVEEAFINTAKEIYEKIQEGVFDINNEANGIKIGPQHAATNATHAGNQGGQQAGGGCC
notes: also called wild-type Rab2A
binds: [3] | [4] | [5] | [6]
